Key:
[1] = target: full-length human CDK9 (residues 1–372) (human) (UniProt P50750)
[2] = target: truncated CDK9 construct CDK9_(330) (residues 1–330) (human) (UniProt P50750)
[3] = target: full-length human CDK9 (residues 1–372) (human) (UniProt P50750); remark: listed apart in the source

Chain of full-length human CDK9 (residues 1–372) (human) (P50750 whole entry, the tested form may be a part): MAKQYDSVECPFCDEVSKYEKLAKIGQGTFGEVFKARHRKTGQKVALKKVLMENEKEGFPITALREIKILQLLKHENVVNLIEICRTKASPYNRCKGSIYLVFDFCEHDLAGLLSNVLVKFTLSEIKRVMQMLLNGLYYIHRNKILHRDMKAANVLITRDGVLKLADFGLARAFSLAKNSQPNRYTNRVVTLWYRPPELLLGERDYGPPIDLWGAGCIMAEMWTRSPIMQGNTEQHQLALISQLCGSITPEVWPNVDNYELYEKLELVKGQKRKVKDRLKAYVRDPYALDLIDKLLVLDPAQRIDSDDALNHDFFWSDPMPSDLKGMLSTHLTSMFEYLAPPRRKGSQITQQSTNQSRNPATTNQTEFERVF
Chain of truncated CDK9 construct CDK9_(330) (residues 1–330) (human) (P50750 1-330): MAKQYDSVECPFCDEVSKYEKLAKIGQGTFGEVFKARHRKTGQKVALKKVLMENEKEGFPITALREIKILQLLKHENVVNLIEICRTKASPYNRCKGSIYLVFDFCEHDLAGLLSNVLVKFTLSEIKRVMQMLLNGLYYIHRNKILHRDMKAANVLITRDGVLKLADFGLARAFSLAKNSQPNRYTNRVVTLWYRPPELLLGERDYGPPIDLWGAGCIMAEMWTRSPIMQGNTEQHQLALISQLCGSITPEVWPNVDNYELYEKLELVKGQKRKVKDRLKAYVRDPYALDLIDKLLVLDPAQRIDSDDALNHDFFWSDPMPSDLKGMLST

- K (M, CTD): overall Michaelis constant for GST-CTD of CDK9FL/cyclin T, from initial rates with both GST-CTD and ATP varied [1]: 115 µM
- K (M,app) for GST-CTD of the kinase activity of CDK9 (330)/cyclin T (32P incorporation into GST-CTD, fixed ATP) [2]: 21.3 µM
- K (M,app) for GST-CTD of the kinase activity of CDK9FL/cyclin T (32P incorporation into GST-CTD, fixed ATP) [3]: 24.3 µM
Substance: GST-tagged version of the human Pol II CTD (from UniProt P24928 1587-1970) (domain or fragment)
